Measured values taken from PMC8809517, “Cofactor-independent RNA editing by a synthetic S-type PPR protein”.

T1: GFP-9S library array, motif 4 ND N98T;D124W (synthetic construct, N98T;D124W)
T1 chain: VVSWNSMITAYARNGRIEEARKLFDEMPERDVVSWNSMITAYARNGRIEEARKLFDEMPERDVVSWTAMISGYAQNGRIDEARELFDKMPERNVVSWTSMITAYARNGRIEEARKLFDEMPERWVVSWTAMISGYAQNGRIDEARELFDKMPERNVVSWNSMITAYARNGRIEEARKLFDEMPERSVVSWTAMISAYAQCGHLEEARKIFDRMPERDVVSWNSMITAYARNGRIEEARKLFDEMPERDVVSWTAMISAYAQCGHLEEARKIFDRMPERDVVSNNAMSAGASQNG

T2: GFP-9S library array, motif 4 ND N98T;D124A (synthetic construct, N98T;D124A)
T2 chain: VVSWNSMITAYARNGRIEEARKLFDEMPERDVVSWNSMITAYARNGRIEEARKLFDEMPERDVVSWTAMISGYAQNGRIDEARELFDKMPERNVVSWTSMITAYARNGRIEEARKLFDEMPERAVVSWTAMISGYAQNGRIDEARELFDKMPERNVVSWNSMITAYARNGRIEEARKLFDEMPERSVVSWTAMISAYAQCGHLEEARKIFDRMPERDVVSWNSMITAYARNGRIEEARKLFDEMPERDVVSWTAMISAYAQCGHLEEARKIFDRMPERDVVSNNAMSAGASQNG

T3: GFP-9S library array, motif 4 ND N98E;D124E (synthetic construct, N98E;D124E)
T3 chain: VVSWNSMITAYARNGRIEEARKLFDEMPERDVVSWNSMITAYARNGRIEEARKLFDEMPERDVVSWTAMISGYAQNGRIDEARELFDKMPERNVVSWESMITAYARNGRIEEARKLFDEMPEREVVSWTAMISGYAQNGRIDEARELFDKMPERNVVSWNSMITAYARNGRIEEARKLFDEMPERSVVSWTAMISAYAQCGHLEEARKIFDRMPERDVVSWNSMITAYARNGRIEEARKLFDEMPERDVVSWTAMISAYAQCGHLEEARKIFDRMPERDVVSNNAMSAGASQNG

T4: GFP-9S library array, motif 4 ND N98Y;D124L (synthetic construct, N98Y;D124L)
T4 chain: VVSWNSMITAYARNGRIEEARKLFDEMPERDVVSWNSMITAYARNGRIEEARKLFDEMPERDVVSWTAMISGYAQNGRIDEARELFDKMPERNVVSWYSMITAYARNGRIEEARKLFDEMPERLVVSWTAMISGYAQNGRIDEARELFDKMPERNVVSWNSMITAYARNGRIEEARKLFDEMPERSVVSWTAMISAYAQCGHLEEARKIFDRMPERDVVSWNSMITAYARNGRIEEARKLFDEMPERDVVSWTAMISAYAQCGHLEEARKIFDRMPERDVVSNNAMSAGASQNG

T5: GFP-9S library array, motif 4 ND N98G;D124N (synthetic construct, N98G;D124N)
T5 chain: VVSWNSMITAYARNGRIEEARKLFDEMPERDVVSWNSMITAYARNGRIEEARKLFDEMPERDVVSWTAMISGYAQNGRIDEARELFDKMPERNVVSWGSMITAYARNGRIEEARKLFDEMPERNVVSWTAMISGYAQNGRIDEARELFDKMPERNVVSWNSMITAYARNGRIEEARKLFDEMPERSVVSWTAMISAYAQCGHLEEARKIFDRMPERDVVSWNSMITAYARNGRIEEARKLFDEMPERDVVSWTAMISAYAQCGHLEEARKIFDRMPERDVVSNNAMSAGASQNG


How the values were obtained:
Assay in all cases: high-throughput RNA pulldown from lysate on Ni-NTA beads; HRP: 50 mM Tris pH 8, 150 mM NaCl, 1 mM beta-mercaptoethanol, 50 ug/ml BSA, 3 ug/ml yeast RNA, 0.5% heparin; ITC and FP: Tris pH 8, 200 mM KCl, 5% glycerol; MST: 50 mM Tris pH 8, 200 mM NaCl, 1 mM DTT, BSA, heparin, 0.05% Tween 20
Settings in all cases: tags: N-terminal His-eGFP
[1] = biological target: T1, GFP-9S library array, motif 4 ND …
[2] = biological target: T2, GFP-9S library array, motif 4 ND …
[3] = biological target: T3, GFP-9S library array, motif 4 ND …
[4] = biological target: T4, GFP-9S library array, motif 4 ND …
[5] = biological target: T5, GFP-9S library array, motif 4 ND …

Binder	Kd ([1]; label: 5' Cy5) [nM]	Kd ([2]; label: 5' Cy5) [nM]	Kd ([3]; label: 5' Cy5) [nM]	Kd ([4]; label: 5' Cy5) [nM]	Kd ([5]; label: 5' Cy5) [nM]	Kd ([1]; label: 5' IRDye 800CW) [nM]	Kd ([2]; label: 5' IRDye 800CW) [nM]	Kd ([3]; label: 5' IRDye 800CW) [nM]	Kd ([4]; label: 5' IRDye 800CW) [nM]	Kd ([5]; label: 5' IRDye 800CW) [nM]
AUUACACGUGA (ssRNA) [Cy5-rpoA]	81.5	107	248	89.7	155					
AUUAGACGUGA (ssRNA) [Cy5-rpoA-G]	71.6	70.1	169	74.6	276					
AUUAAACGUGA (ssRNA) [IR-rpoA-A]						125	52.8	387	162	41.2
AUUAUACGUGA (ssRNA) [IR-rpoA-U]						150	173	675	199	82.7
